Data on three molecules can be found in publication PMC11915804, “In situ structures of the contractile nanomachine myophage Mu in both its extended and contracted states” (Journal of Virology, 2025).

B1: baseplate wedge protein 1 (BW1) gp46 (natural protein, phage Mu, UniProt Q9T1V3 1-145, looked up)
chain: MTDLAIIWTNGRGDIAQDGIDMLTDDSLTTDVTISLFTDRRALDSDTLPDGSDDRRGWWGDSYRDRPIGSRLWLLSREKATPDTLERARGYAEEALEWLKTAGRVSAINVRAEQLHQGWLYLYIALTLPDGSVIPYEFKAAFNGV
notes: baseplate wedge protein 1 gp46 of myophage Mu, as it stands in the virion; One copy in each of the six wedges; Model deposited here; source: phage Mu virions grown on E. coli (ATCC 23724), purified (PEG 8000/NaCl precipitation, CsCl gradient)
B2: baseplate wedge protein 3 (BW3) gp48 (natural protein, phage Mu, UniProt Q9T1V1 1-180, looked up)
chain: MAVTPWQTAFLQLLPSGLAWNKSPDSKLSALAQAISDVIATAADDARQMLRERFPSTSRWYLGEWESFLGLPDCTSENGTLSERQRAAANKMRMTGNLSRRFYEWLAAQYGFTVRLTDSTEGQWVTQVNIYGIKNYRNATVLDNVLTPLRVYESGALECLLEKYKPAHQIYKFVYHDGDN
notes: baseplate wedge protein 3 gp48 of myophage Mu, as it stands in the virion; One copy in each of the six wedges; Model deposited here; source: phage Mu virions grown on E. coli (ATCC 23724), purified (PEG 8000/NaCl precipitation, CsCl gradient)
B3: spike protein gp45 (natural protein, phage Mu, UniProt Q9T1V4 1-197, looked up)
chain: MERVNDSALNRLLTPLMRRVRLMLARAVVNVINDGRKVQNLQVGLLDDEESDEVERLQNYGHFSVPLPGAEALIACVGAQRDQGIAVVVEDRRYRPTNLEPGDAGIYHHEGHRIRLTKDGRCIITCKTVEVYADESMTVDTPRTTFTGDVEIQKGLGVKGKSQFDSNITAPDAIINGKSTDKHIHRGDSGGTTGPMQ
notes: baseplate spike protein gp45 of myophage Mu, as it stands in the virion; Trimer; Model deposited here; source: phage Mu virions grown on E. coli (ATCC 23724), purified (PEG 8000/NaCl precipitation, CsCl gradient)

What all share (assay): cryo-EM structure; purified phage Mu virions in the extended state (native phage) in phage buffer (10 mM MgCl2, 5 mM NaCl, 10 mM Tris-HCl, pH 7.4); icosahedral, symmetry-mismatch and local reconstruction; 3.2 Å (3-fold capsid), 3.4 Å (portal-adaptor), 3.5 Å (terminator-tail), 3.3 Å (baseplate)
The target of series [1] is T1, baseplate wedge protein 2 (BW2) gp47 (phage Mu, UniProt Q9T1V2 1-360).
T1 construct: baseplate wedge protein 2 gp47 of myophage Mu, as it stands in the virion; Two conformers (BW2-i, BW2-o) in each of the six wedges; Model deposited here; also called BW2-i; BW2-o; source: phage Mu virions grown on E. coli (ATCC 23724), purified (PEG 8000/NaCl precipitation, CsCl gradient)
T1 sequence (looked up): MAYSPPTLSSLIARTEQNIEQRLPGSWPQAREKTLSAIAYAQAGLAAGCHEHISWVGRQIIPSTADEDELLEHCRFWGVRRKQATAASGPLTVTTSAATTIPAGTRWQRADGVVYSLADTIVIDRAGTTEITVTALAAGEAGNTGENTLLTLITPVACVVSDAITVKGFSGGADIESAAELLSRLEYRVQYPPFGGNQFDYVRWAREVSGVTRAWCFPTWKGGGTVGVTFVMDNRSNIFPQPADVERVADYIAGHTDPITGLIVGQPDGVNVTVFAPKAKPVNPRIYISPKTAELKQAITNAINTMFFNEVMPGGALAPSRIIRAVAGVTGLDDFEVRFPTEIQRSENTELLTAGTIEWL
The settings on record: both partners purified.

In series [2] the target is B2. Conditions: both partners purified.
In a further series the target is T2, tail sheath protein gp39 (phage Mu, UniProt P79678 1-495).
T2 construct: tail sheath protein gp39 of myophage Mu, as it stands in the virion; Hexameric rings, 30 of them stacked in the tail; Model deposited here; source: phage Mu virions grown on E. coli (ATCC 23724), purified (PEG 8000/NaCl precipitation, CsCl gradient)
T2 sequence (looked up): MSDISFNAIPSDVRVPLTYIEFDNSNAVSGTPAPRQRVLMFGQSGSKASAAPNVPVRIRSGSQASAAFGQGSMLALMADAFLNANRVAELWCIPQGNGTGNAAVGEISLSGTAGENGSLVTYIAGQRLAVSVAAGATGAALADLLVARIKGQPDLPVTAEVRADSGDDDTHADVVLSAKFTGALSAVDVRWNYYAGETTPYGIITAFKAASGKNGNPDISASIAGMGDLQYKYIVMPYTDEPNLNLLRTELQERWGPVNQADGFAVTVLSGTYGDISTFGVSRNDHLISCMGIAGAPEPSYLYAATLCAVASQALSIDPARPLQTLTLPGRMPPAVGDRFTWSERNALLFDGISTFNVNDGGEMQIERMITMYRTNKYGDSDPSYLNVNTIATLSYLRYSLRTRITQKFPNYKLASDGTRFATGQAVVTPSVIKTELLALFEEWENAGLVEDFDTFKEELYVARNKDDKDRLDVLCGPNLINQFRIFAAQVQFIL
Conditions: both partners purified.

In series [3] the target is T3, tube initiator protein gp43 (phage Mu, UniProt P08557 1-495).
T3 construct: tube initiator protein gp43 (N protein, DNA circularization protein) of myophage Mu, as it stands in the virion; Hexamer; Model deposited here; also called N protein; DNA circularization protein; source: phage Mu virions grown on E. coli (ATCC 23724), purified (PEG 8000/NaCl precipitation, CsCl gradient)
T3 sequence (looked up): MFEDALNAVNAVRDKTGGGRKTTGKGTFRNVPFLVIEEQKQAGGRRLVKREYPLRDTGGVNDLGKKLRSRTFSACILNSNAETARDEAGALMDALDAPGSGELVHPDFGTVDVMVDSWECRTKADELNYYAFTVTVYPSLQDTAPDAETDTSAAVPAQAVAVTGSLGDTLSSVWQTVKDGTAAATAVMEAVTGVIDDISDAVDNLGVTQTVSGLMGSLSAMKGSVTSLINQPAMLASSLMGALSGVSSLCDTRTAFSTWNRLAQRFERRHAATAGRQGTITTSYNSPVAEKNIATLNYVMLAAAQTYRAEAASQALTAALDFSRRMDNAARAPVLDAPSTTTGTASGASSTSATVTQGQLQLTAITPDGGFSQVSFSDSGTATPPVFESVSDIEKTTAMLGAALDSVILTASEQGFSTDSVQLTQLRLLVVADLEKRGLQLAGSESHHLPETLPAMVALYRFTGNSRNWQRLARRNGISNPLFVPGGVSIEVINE
The settings on record: both partners purified.

Series [4] deals with T4, G(+) type fiber protein gp49 (phage Mu, UniProt Q9T1V0 1-504).
T4 construct: G(+) type tail fiber protein gp49 of myophage Mu, as it stands in the virion; only the N-terminus was modelled; Trimer; six fibers in the baseplate; Model deposited here; source: phage Mu virions grown on E. coli (ATCC 23724), purified (PEG 8000/NaCl precipitation, CsCl gradient)
T4 sequence (looked up): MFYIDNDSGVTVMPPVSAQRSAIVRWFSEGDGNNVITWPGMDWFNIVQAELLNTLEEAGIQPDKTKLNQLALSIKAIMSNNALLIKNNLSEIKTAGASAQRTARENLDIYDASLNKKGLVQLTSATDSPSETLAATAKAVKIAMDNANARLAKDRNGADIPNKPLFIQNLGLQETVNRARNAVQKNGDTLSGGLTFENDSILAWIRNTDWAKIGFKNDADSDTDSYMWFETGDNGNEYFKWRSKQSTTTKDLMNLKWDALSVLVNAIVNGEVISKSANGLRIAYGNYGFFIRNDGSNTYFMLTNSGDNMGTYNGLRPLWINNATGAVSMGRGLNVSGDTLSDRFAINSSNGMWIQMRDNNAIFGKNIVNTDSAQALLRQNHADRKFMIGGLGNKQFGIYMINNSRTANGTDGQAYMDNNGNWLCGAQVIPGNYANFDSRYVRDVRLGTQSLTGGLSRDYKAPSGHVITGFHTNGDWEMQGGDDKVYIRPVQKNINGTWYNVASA
Conditions: both partners purified.

Another series deals with T5, hub protein gp44 (phage Mu, UniProt P08558 1-379).
T5 construct: baseplate hub protein gp44 of myophage Mu, as it stands in the virion; Trimer; Model deposited here; source: phage Mu virions grown on E. coli (ATCC 23724), purified (PEG 8000/NaCl precipitation, CsCl gradient)
T5 sequence (looked up): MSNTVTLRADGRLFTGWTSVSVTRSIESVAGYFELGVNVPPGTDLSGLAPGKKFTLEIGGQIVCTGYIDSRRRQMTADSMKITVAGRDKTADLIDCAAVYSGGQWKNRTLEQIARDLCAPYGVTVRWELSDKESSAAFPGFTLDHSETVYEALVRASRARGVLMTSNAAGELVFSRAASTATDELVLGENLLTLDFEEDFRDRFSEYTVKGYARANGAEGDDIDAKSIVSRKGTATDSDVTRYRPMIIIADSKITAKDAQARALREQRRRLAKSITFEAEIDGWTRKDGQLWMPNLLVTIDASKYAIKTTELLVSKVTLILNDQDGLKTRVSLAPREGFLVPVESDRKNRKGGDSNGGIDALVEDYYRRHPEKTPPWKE
The settings on record: both partners purified.

Series [5] concerns the molecule itself.

B1: the binding result (in series [1]; in series [2]; in the series with tail sheath protein gp39; in series [3]) was “binds” throughout.

On to B2, for which the binding result in series [1], in series [4] and in series [3] was “binds” each time.

Broadly, the stoichiometry N is the number of molecules, sites or subunits per partner or assembly. Take B3: in the series with hub protein gp44, the binding result was “binds”. Also, the “stoichiometry N” value in series [5] is 3.
